# Test results: article PMC10665946
# Experiments:
# [1] = molecular target: V113A LukB CC8 LukAB (S. aureus); assay: negative stain electron microscopy; 0.03 mg/ml protein in TBS + 20% v/v MPD, RT 45 min; uranyl formate stain; 2D class averages
# [2] = molecular target: V113A LukB CC8 LukAB (S. aureus); assay: negative stain electron microscopy; 0.03 mg/ml protein in TBS + 40% v/v MPD, RT 45 min; uranyl formate stain; 2D class averages
# [3] = molecular target: WT CC8 LukAB (leukocidin A/leukocidin B) heterodimer (S. aureus); assay: as above
Substance,stoichiometry N [1],stoichiometry N [2],stoichiometry N [3]
V113A LukB CC8 LukAB (complex),8,8,–
WT CC8 LukAB (leukocidin A/leukocidin B) heterodimer (complex),–,–,8
